ELISA S/N(SA) data for 64 molecules are collected here from patent US20240092836A1.

The labels stand for the following.
B1: C4m#19-5th4w-NN6-93 (peptide, not shown: large carriers; small tags and cut ends)
chain: GGCCHPWLPIVSTHFCGL
B2: C4m#19-5th2w-NNS6-90 (peptide, not shown: large carriers; small tags and cut ends)
chain: GGCRHPFLPIVSFHFCPF
B3: C4m#19-5th4w-NN6-56 (peptide, not shown: large carriers; small tags and cut ends)
chain: GGCWHPFLPIQSLHFCGV
B4: C4m#19-5th4w-NN6-15 (peptide, not shown: large carriers; small tags and cut ends)
chain: GGCLHPFLPIRSVHFCPF
B5: C4m#19-5th4w-NN6-86 (peptide, not shown: large carriers; small tags and cut ends)
chain: GGCAHPVLPIRSLHFCPH
B6: C4m#19-5th2w-NNS6-94 (peptide, not shown: large carriers; small tags and cut ends)
chain: GGCFHPYLPISSVHFCGR
B7: C4m#19-5th4w-NN6-85 (peptide, not shown: large carriers; small tags and cut ends)
chain: GGCWHPFLPIFSVHFCGC
B8: C4m#19-5th4w-NN6-79 (peptide, not shown: large carriers; small tags and cut ends)
chain: GGCWHPVLPIRSCHFCAV
B9: C4m#19-5th4w-NN6-54 (peptide, not shown: large carriers; small tags and cut ends)
chain: GGCLHPGLPIRSLHFCPR
B10: C4m#19-5th4w-NN6-90 (peptide, not shown: large carriers; small tags and cut ends)
chain: GGCRHPWLPIVSYHFCSS
B11: C4m#19-5th4w-NN6-77 (peptide, not shown: large carriers; small tags and cut ends)
chain: GGCRHPFLPIVSTHFCSR
B12: C4m3127-4th-NNS6-83 (peptide, not shown: large carriers; small tags and cut ends)
chain: GGCRHPFLPIFSKHFCEL
B13: C4m3127-4th-NNS6-87 (peptide, not shown: large carriers; small tags and cut ends)
chain: GGCRHPWLPIVSWHFCSR
B14: C4m3127-4th-NNS6-90 (peptide, not shown: large carriers; small tags and cut ends)
chain: GGCKHPVLPIVSLHFCPW
B15: C4m#19-5th4w-NN6-52 (peptide, not shown: large carriers; small tags and cut ends)
chain: GGCLHPFLPIRSVHFCGC
B16: C4m#19-5th4w-NN6-34 (peptide, not shown: large carriers; small tags and cut ends)
chain: GGCFHPFLPIRSDHFCSR
B17: C4m#19-5th4w-NN6-32 (peptide, not shown: large carriers; small tags and cut ends)
chain: GGCPHPFLPIWSVHFCPF
B18: C4m#19-5th2w-NNS6-3 (peptide, not shown: large carriers; small tags and cut ends)
chain: GGCAHPFLPIFSPHFCPF
B19: C4m#19-5th4w-NN6-47 (peptide, not shown: large carriers; small tags and cut ends)
chain: GGCPHPWLPIFSRHFCPV
B20: C4m#19-5th2w-NNS6-55 (peptide, not shown: large carriers; small tags and cut ends)
chain: GGCMHPYLPIKSVHFCPL
B21: C4m#19-5th4w-NN6-92-1 (peptide, not shown: large carriers; small tags and cut ends)
chain: GGCVHPFLPIRSVHFCAL
B22: C4m#19-5th2w-NNS6-14 (peptide, not shown: large carriers; small tags and cut ends)
chain: GGCWHPFLPIRSYHFCPW
B23: C4m#19-5th4w-NN6-55-4 (peptide, not shown: large carriers; small tags and cut ends)
chain: GGCVHPSLPILSVHFCPR
B24: C4m#19-5th4w-NN6-65-1 (peptide, not shown: large carriers; small tags and cut ends)
chain: GGCWHPFLPISSPHFCGR
B25: C4m#19-5th4w-NN6-68 (peptide, not shown: large carriers; small tags and cut ends)
chain: GGCLHPWLPIRSRHFCSR
B26: C4m#19-5th4w-NN6-70 (peptide, not shown: large carriers; small tags and cut ends)
chain: GGCMHPFLPIRSMHFCPL
B27: C4m#19-5th4w-NN6-23 (peptide, not shown: large carriers; small tags and cut ends)
chain: GGCRHPHLPIWSWHFCGR
B28: C4m#19-5th4w-NN6-57 (peptide, not shown: large carriers; small tags and cut ends)
chain: GGCMHPYLPIVSVHFCPC
B29: C4m#19-5th4w-NN6-44 (peptide, not shown: large carriers; small tags and cut ends)
chain: GGCRHPFLPIVSWHFCGR
B30: C4m#19-5th4w-NN6-51 (peptide, not shown: large carriers; small tags and cut ends)
chain: GGCWHPYLPIVSWHFCSR
B31: C4m3127-4th-NNS6-28 (peptide, not shown: large carriers; small tags and cut ends)
chain: GGCLHPFLPIFSSHFCAL
B32: C4m#19-5th4w-NN6-2 (peptide, not shown: large carriers; small tags and cut ends)
chain: GGCWHPHLPIVSSHFCLF
B33: C4m#19-5th4w-NN6-69-1 (peptide, not shown: large carriers; small tags and cut ends)
chain: GGCSHPFLPILSVHFCPF
B34: C4m3127-4th-NNS6-72 (peptide, not shown: large carriers; small tags and cut ends)
chain: GGCVHPYLPISSIHFCSM
B35: C4m3127-4th-NNS6-17 (peptide, not shown: large carriers; small tags and cut ends)
chain: GGCRHPVLPIVSLHFCPG
B36: C4m#19-5th4w-NN6-71 (peptide, not shown: large carriers; small tags and cut ends)
chain: GGCPHPWLPIASVHFCPF
B37: C4m#19-5th4w-NN6-82 (peptide, not shown: large carriers; small tags and cut ends)
chain: GGCFHPFLPIRSLHFCCR
B38: C4m#19-5th4w-NN6-11 (peptide, not shown: large carriers; small tags and cut ends)
chain: GGCRHPFLPIWSHHFCVC
B39: C4m#19-5th4w-NN6-39 (peptide, not shown: large carriers; small tags and cut ends)
chain: GGCWHPFLPIRSLHFCPR
B40: C4m#19-5th4w-NN6-24 (peptide, not shown: large carriers; small tags and cut ends)
chain: GGCWHPWLPIYSHHFCPI
B41: C4m#19-5th4w-NN6-25 (peptide, not shown: large carriers; small tags and cut ends)
chain: GGCLHPVLPIRSRHFCPV
B42: C4m#19-5th4w-NN6-7 (peptide, not shown: large carriers; small tags and cut ends)
chain: GGCRHPFLPIWSWHFCPF
B43: C4m#19-5th4w-NN6-67 (peptide, not shown: large carriers; small tags and cut ends)
chain: GGCLHPFLPIRSVHFCPR
B44: C4m#19-5th4w-NN6-81 (peptide, not shown: large carriers; small tags and cut ends)
chain: GGCFHPYLPIRSWHFCSR
B45: C4m#19-5th4w-NN6-21 (peptide, not shown: large carriers; small tags and cut ends)
chain: GGCWHPWLPILSPHFCPR
B46: C4m#19-5th4w-NN6-62 (peptide, not shown: large carriers; small tags and cut ends)
chain: GGCQHPYLPIWSFHFCPF
B47: C4m#19-5th4w-NN6-9 (peptide, not shown: large carriers; small tags and cut ends)
chain: GGCFHPYLPIRSWHFCGR
B48: C4m#19-5th4w-NN6-50 (peptide, not shown: large carriers; small tags and cut ends)
chain: GGCKHPVLPIWSWHFCRI
B49: C4m#19-5th4w-NN6-19 (peptide, not shown: large carriers; small tags and cut ends)
chain: GGCRHPYLPIWSIHFCQK
B50: C4m#19-5th2w-NNS6-25 (peptide, not shown: large carriers; small tags and cut ends)
chain: GGCKHPFLPISSHHFCPY
B51: C4n#19-5th2w-NNS6-71 (peptide, not shown: large carriers; small tags and cut ends)
chain: GGCRHPYLPIASPHFCPG
B52: C4m#19-5th4w-NN6-20 (peptide, not shown: large carriers; small tags and cut ends)
chain: GGCSHPQLPILSDHFCSA
B53: C4m#19-5th2w-NNS6-67 (peptide, not shown: large carriers; small tags and cut ends)
chain: GGCQHPWLPISSWHFCPR
B54: C4m#19-5th4w-NN6-4 (peptide, not shown: large carriers; small tags and cut ends)
chain: GGCRHPYLPIVSRHFCPF
B55: C4m#19-5th4w-NN6-37 (peptide, not shown: large carriers; small tags and cut ends)
chain: GGCLHPFLPISSWHFCGR
B56: C4m#19-5th4w-NN6-69-3 (peptide, not shown: large carriers; small tags and cut ends)
chain: GGCLHPWLPIVSVHFCAR
B57: C4m#19-5th2w-NNS6-22 (peptide, not shown: large carriers; small tags and cut ends)
chain: GGCMHPFLPIQSVHFCSR
B58: C4m#19-5th4w-NN6-53 (peptide, not shown: large carriers; small tags and cut ends)
chain: GGCRHPFLPIYSVHFCAC
B59: C4m#19-5th2w-NNS6-12 (peptide, not shown: large carriers; small tags and cut ends)
chain: GGCWHPYLPIRSVHFCGR
B60: C4m#19-5th4w-NN6-59 (peptide, not shown: large carriers; small tags and cut ends)
chain: GGCLHPHLPIWSLHFCPL
B61: C4m#19-5th4w-NN6-87 (peptide, not shown: large carriers; small tags and cut ends)
chain: GGCLHPVLPIRSFHFCWR
B62: C4m#19-5th4w-NN6-78 (peptide, not shown: large carriers; small tags and cut ends)
chain: GGCWHPALPIRSWHFCPR
B63: C4m#19-5th2w-NNS6-21 (peptide, not shown: large carriers; small tags and cut ends)
chain: GGCWHPFLPIRSSHFCPS
B64: C4m#19-5th4w-NN6-58 (peptide, not shown: large carriers; small tags and cut ends)
chain: GGCRHPFLPISSIHFCCI

In this test the target is Recombinant Human CTLA4-Fc chimera (R&D systems) (human) (UniProt P16410). Nature of the test: ELISA, signal over SA.
Take B1: the ELISA S/N(SA) came to 28.9.
B2: the ELISA S/N(SA) is 19.7.
The same measure for B3: 27.1.
As for B4, the ELISA S/N(SA) is 39.9.
The same measure for B5: 19.7; for B6: 22.4.
Regarding B7, the ELISA S/N(SA) was 22.9.
As for B8, the ELISA S/N(SA) was 24.9.
The same measure for B9: 33.3; for B10: 21.2; for B11: 30.5.
For B12, the ELISA S/N(SA) was found to be 20.7.
As to B13, the ELISA S/N(SA) amounted to 21.4.
Take B14: the ELISA S/N(SA) came out at 22.9.
Turning to B15, the ELISA S/N(SA) was 28.6.
Under B16 stands 32.2.
The same measure for B17: 27.2; for B18: 18.4.
For the molecule B19, the ELISA S/N(SA) was 34.2.
Under B20 stands 28.3.
Under B21 stands 30.
Consider B22, for which the ELISA S/N(SA) amounted to 34.7.
The same measure for B23: 29.5; for B24: 29.5; for B25: 24.7.
The same measure for B26: 35.5.
With B27, the ELISA S/N(SA) is 30.2.
Under B28 stands 27.7.
As for B29, the ELISA S/N(SA) came to 30.1.
Under B30 stands 22.1; under B31, 23.2; under B32, 18.4.
Under B33 stands 24.9; under B34, 20.
Under B35 stands 20.4.
Turning to B36, the ELISA S/N(SA) is 17.4.
For the molecule B37, the ELISA S/N(SA) came to 28.3.
The same measure for B38: 22.1; for B39: 35.6; for B40: 27.6.
On to B41, for which the ELISA S/N(SA) is 38.9.
As for B42, the ELISA S/N(SA) was found to be 23.
Under B43 stands 45.4; under B44, 32.3; under B45, 37.5.
Under B46 stands 17.2; under B47, 28.8; under B48, 28.1.
The same measure for B49: 29.7; for B50: 21.1; for B51: 22.9.
For B52, the ELISA S/N(SA) came to 30.6.
Under B53 stands 25.5.
In the case of B54, the ELISA S/N(SA) is 31.6.
The same measure for B55: 22.7; for B56: 24.9; for B57: 29.3.
Under B58 stands 32.2.
The same measure for B59: 20.4; for B60: 27.6; for B61: 21.4.
Regarding B62, the ELISA S/N(SA) was determined as 27.9.
In the case of B63, the ELISA S/N(SA) was determined as 31.1.
Under B64 stands 18.7.
